Results on four molecules are retold here after patent US20110177071A1 (PERSEID THERAPEUTICS, published 2011).

Numbering of substitutions follows the chain as printed.

Test [1] deals with T1, human CD86-murine Ig fusion protein (human).
T1 construct: Bought (Ancell #509-820); also called hCD86-mIg
T1 chain: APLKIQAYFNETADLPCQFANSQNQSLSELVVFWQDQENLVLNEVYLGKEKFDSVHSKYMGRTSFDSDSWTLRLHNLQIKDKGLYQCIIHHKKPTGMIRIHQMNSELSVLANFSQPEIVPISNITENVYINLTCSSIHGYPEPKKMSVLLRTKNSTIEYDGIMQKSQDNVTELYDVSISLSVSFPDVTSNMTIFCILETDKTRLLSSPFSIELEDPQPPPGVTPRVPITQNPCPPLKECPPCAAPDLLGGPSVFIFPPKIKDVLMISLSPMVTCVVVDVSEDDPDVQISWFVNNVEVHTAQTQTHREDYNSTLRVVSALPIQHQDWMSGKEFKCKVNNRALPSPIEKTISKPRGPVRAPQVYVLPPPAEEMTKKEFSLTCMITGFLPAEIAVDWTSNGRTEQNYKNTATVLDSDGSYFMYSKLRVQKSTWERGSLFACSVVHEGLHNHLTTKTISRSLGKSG
In words: SPR Biacore, hCD86-mIg captured; lower end of the KD bin (10x Orencia). The protocol: (§1) All Biacore™ analyses were performed on a Biacore™ 2000 system (GE Healthcare) at room temperature (RT, 25° C.). HBS-EP buffer (10 mM HEPES (pH 7.4), 150 mM NaCl, 3 mM EDTA, 0.005% surfactant P20) was used as the flow buffer for all experiments.
(§2) Rabbit anti-mouse IgG antibody (GE Healthcare, #BR-1005-14) was immobilized on CM5 sensor chips (GE Healthcare, #BR-1000-14) according to the manufacturer's protocol. Antibody was diluted to 30 μg/ml in immobilization buffer (10 mM sodium acetate, pH 5.0 (BR-1003-51)). At a flow rate of 5 μl/minute, sensor chip CM5 was activated with a 35 μl injection of a mixture of 1-Ethyl-3-[3-dimethylaminopropyl]carbodiimide hydrochloride (EDC) and N-hydroxysuccinimide (NHS) (made by mixing equal volumes of 11.5 mg/ml EDC and 75 mg/ml NHS) (GE Healthcare, #BR-1000-50), followed by a 35 μl injection of undiluted antibody. Un-reacted sites were quenched with 35 μl of 1M ethanolamine-HCL, pH 8.5 (GE Healthcare, #BR-1000-50). […] CTLA-4 ligands human CD80-murine Ig (hCD80-mIg) (Ancell, #510-820) or human CD86-murine Ig (hCD86-mIg) (Ancell, #509-820) were bound to antibody-coated sensor chips by injection of 10 μl or 16 μl, respectively, ligand solution (2 μg/ml protein in HBS-EP buffer [10 mM HEPES pH 7.4, 150 mM NaCl, 3 mM EDTA, 0.005% (v/v) surfactant P-20, GE Healthcare, #BR-1001-88]) at a flow rate of 10 μl/min.

In test [2] the target is T1, human CD86-murine Ig fusion protein. The test can be described thus: SPR Biacore, hCD86-mIg captured; upper end of the KD bin (2x Orencia). As for the experimental part: as §1, §2
Test [3] addresses T2, human CD80-murine Ig fusion protein (human).
T2 construct: Bought (Ancell #510-820); also called hCD80-mIg; human CD80-murine IgG
T2 chain: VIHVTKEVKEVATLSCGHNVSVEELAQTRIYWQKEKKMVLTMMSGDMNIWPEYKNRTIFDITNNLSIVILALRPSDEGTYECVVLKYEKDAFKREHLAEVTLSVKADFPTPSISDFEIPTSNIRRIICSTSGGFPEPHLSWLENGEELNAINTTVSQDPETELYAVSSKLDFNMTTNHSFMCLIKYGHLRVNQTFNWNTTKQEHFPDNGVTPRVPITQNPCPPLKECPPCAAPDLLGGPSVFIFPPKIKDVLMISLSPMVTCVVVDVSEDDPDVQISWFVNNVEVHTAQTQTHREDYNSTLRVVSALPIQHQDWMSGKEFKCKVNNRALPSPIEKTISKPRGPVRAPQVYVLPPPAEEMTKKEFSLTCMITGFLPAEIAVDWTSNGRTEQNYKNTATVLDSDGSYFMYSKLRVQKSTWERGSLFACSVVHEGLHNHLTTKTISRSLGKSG
The test can be described thus: SPR Biacore, hCD80-mIg captured.

Test [4] deals with T3, monomeric hCD86 ECD (papain-digested hCD86-mIg) (human, UniProt P42081 24-243).
T3 construct: also called monomeric hCD86-mIg ligand; monomeric CD86 ECD
T3 chain: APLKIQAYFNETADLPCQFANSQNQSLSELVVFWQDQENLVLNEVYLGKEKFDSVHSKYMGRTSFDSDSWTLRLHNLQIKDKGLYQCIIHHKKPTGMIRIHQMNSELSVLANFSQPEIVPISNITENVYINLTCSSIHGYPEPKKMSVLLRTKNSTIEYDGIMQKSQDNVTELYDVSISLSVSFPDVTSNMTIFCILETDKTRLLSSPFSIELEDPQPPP
In words: SPR Biacore, fusion protein captured, monomeric hCD86 ECD in flow. As for the experimental part: Regeneration between cycles was performed by 3 min incubation with 10 mM glycine buffer (pH 1.7) at 30 μl/min.
For kinetic analysis, data from monomeric binding assays were selected as described above except that association data selection began and ended 5 s from the injection start and stop times, and dissociation data selection started 5 s after the injection stop time, and typically included 1-60 s of the dissociation period. Such data were also analyzed for steady state equilibrium affinities using the BIAevaluation software. Steady state binding levels for each concentration (Responseeq (“Req”) values) were averaged over 5-20 s range near the end of the sample injection using the BIAevaluation “General fit: average” function.

In test [5] the target is T4, full-length human CD86 on HEK293 cells (human, UniProt P42081 24-329).
T4 sequence: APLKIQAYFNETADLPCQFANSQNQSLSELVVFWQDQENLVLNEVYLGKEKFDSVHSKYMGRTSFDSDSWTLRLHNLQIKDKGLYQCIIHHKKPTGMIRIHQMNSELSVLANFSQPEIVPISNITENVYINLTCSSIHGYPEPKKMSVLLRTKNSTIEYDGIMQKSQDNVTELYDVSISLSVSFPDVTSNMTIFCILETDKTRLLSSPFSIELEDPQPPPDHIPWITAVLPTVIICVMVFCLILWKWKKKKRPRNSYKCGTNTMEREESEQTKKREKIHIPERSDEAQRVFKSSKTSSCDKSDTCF
The test can be described thus: cell-based or functional assay.

In test [6] the target is T1, human CD86-murine Ig fusion protein. The test can be described thus: SPR Biacore, hCD86-mIg captured.

B1: D1-IgG2 (Fc fusion)
chain: MHVAQPAVVLASSRGIASFVCEYESPHKATEIRVTVLRQANSQVTEVCAMTYMKGDELTFLDDPFCTGTFSGNQVNLTIQGLRAADTGLYICKVELMYPPPYYLGIGNGTQIYVIDPEPCPDSDERKCCVECPPCPAPPVAGPSVFLFPPKPKDTLMISRTPEVTCVVVDVSHEDPEVQFNWYVDGVEVHNAKTKPREEQFNSTFRVVSVLTVVHQDWLNGKEYKCKVSNKGLPAPIEKTISKTKGQPREPQVYTLPPSREEMTKNQVSLTCLVKGFYPSDIAVEWESNGQPENNYKTTPPMLDSDGSFFLYSKLTVDKSRWQQGNVFSCSVMHEALHNHYTQKSLSLSPG
With B1, the Kd in test [1] is at least 523 pM; in test [2], at most 2650 pM; in test [3], below 439 pM. Further, in test [3], the “Binding Avidity (Relative to Orencia)” value is above 2 fold.

B2: D3-31-IgG2 (Fc fusion)
chain: B1 chain with H27G, T30N, N41D, G55E, F65S
As for B2, in test [4], the “Binding Affinity (Relative to LEA29Y-Ig)” value is above 5 fold and the Kd is below 336000 pM. In test [3], the “Binding Avidity (Relative to Orencia)” value is above 2 fold and the Kd is below 439 pM. In addition, the “Mean IC50 (nM), CD4+ T cell proliferation” value (“Mean IC50 (nM)” below) in test [5] stood at 0.03 nM. Besides, in test [6], the “Binding Avidity (Relative to Orencia)” value was above 40 fold and the Kd was below 131 pM.

B3: D3-53-IgG2 (Fc fusion)
chain: B1 chain with H27G, T30N, N41G, F65S, L104E
Take B3: in test [4], the “Binding Affinity (Relative to LEA29Y-Ig)” value is above 5 fold. Further, the Kd in test [4] is below 336000 pM; in test [3], below 439 pM; in test [6] it was below 131 pM. Further, the “Binding Avidity (Relative to Orencia)” value in test [3] was above 2 fold; in test [6], above 40 fold. In addition, the “Mean IC50 (nM)” value in test [5] amounted to 0.02 nM.

B4: D3-IgG2 (Fc fusion)
chain: B1 chain with H27G, T30N, N41G, F65S, I106F
notes: also called clone D3
In the case of B4, in test [4], the “Binding Affinity (Relative to LEA29Y-Ig)” value was above 5 fold and the Kd is below 336000 pM. The molecule also yielded a Kd in test [3] of 439 to 1750 pM. Also, in test [5], the “Mean IC50 (nM)” value amounted to 0.04 nM. For the same molecule, in test [6], the “Binding Avidity (Relative to Orencia)” value is above 40 fold and the Kd is below 131 pM.
